This is an account of results in publication PMC9249894 (2022).

In general, Kd refers to the concentration at which binding is half-saturated.

For the experiment, the target named is Ubiquitin (Homo sapiens, UniProt P0CG48). Put plainly: NMR titration.

B1: CIN85 SH3c 263-333 (protein)
chain: DSRTKSKDYCKVIFPYEAQNDDELTIKEGDIVTLINKDCIDVGWWEGELNGRRGVFPDNFVKLLPPDFEKE
As for B1, binding was characterised by a dissociation constant (Kd) of 370 µM.
